Measurements reported in patent publication US11607466B2, “Tumor and immune cell imaging based on PD-L1 expression” (The Johns Hopkins University, priority 2016, dated 2023).

How the values were obtained:
[1] = target: T1, PD-L1 in hPD-L1 cells (Homo sapiens, UniProt Q9NZQ7); experiment: In vitro binding of [64Cu]WL12 to hPD-L1 and CHO cells; format: cell-based; details: compared with WL12
T1 construct: expressed in transfected cells; grown as tumours in NSG mice for the in vivo units
Description: 1.4.9. […] After incubation, cells were washed three times with cold PBS prior to counting on an automated gamma counter (1282 Compugamma CS, Pharmacia/LKBNuclear, Inc., Gaithersburg, Md.). […] Mean fluorescence intensity values were correlated with % incubated dose (% ID) uptake. All the cell uptake studies were performed in triplicate for each cell line and repeated three times.

[2] = target: T2, PD-L1 in A549-iPDL1 tumors (Homo sapiens, UniProt Q9NZQ7); experiment: [64Cu]WL12 PET and biodistribution in A549-iPDL1 and A549 xenografts; format: in vivo; details: AtzMab 20 mg/kg
T2 construct: expressed in transfected cells; host or cells: A549 NSCLC cells, lentiviral pINDUCER20, G418-selected, doxycycline-induced; as xenografts for the in vivo unit
T2 sequence (Q9NZQ7 19-290): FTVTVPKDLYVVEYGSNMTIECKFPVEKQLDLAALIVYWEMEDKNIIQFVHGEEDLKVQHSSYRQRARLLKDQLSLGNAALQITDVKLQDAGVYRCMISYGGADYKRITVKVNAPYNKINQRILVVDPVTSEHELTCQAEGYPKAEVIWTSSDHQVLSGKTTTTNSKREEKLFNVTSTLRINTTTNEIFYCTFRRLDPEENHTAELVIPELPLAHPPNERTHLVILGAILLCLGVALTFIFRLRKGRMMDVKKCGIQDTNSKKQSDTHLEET
Source text: To do so, an A549 NSCLC cell line with doxycycline-inducible PD-L1 expression (A549-iPD-L1) was generated. A549 is a Kras G12S lung adenocarcinoma cell line that expresses low PD-L1 at baseline. It has been transduced with PD-L1 in the all-in-one lentivirus pINDUCER20 vector (Meerbrey, et al., 2011), selected with G418, confirmed for PD-L1 induction by flow cytometry (FIG. 37A) and used for in vitro and in vivo studies. Cy5-PD-L1-mAbs binding to doxycycline-treated A549-iPDL1 cells was blocked by WL12 validating the specificity of WL12 (FIG. 37B). […] Accordingly, it is expected that PET will play a key role in quantifying dynamic changes in PD-L1 expression within the standard clinical work flow, providing a novel way to inform therapy decisions.

T1 sequence (Q9NZQ7 19-290): as above

AtzMab: therapeutic PD-L1 antibody Atezolizumab
potency at inhibiting [64Cu]WL12 binding [1]: more potent than WL12
decrease of [64Cu]WL12 uptake in A549-iPDL1 tumors [2]: > 75%
